Results from patent US20220315628A1.

Experiments:
[1] = target: Y1G2 peptide (XGVECK-biotin with X = Tyr); experiment: SPR; KD for the Tyr peptide divided by KD for the Trp peptide
[2] = target: F1G2 peptide (XGVECK-biotin with X = Phe); experiment: SPR; KD for the Phe peptide divided by KD for the Tyr peptide
[3] = target: W1G2 peptide (XGVECK-biotin with X = Trp); experiment: SPR; KD for the Trp peptide divided by KD for the Tyr peptide
[4] = target: Y1G2 peptide (XGVECK-biotin with X = Tyr); experiment: SPR; KD for the Tyr peptide divided by KD for the Tyr peptide
[5] = target: W1G2 peptide (XGVECK-biotin with X = Trp); experiment: SPR; KD for the Trp peptide divided by KD for the Trp peptide
[6] = target: F1G2 peptide (XGVECK-biotin with X = Phe); experiment: SPR, steady state; biotinylated peptide on streptavidin chip, protein in solution
[7] = target: Y1G2 peptide (XGVECK-biotin with X = Tyr); experiment: as above
[8] = target: W1G2 peptide (XGVECK-biotin with X = Trp); experiment: as above
[9] = target: F1G2 peptide (XGVECK-biotin with X = Phe); experiment: SPR; KD for the Phe peptide divided by KD for the Trp peptide
[10] = target: W1G2 peptide (XGVECK-biotin with X = Trp); experiment: SPR; KD for the Trp peptide divided by KD for the Phe peptide
[11] = target: F1G2 peptide (XGVECK-biotin with X = Phe); experiment: SPR; KD for the Phe peptide divided by KD for the Phe peptide
[12] = target: Y1G2 peptide (XGVECK-biotin with X = Tyr); experiment: SPR; KD for the Tyr peptide divided by KD for the Phe peptide
[13] = target: F1G2 peptide (XGVECK-biotin with X = Phe); experiment: SPR dissociation curves; biotinylated peptide on streptavidin chip
[14] = target: Y1G2 peptide (XGVECK-biotin with X = Tyr); experiment: as above
[15] = target: W1G2 peptide (XGVECK-biotin with X = Trp); experiment: as above

B1: A. tumefaciens ClpS2 [Pro34 Arg35 Glu36], wild-type, expressed in and purified from E. coli (protein)
chain: MGHHHHHHENLYFQGSDSPVDLKPKPKVKPKLERPKLYKVMLLNDDYTPREFVTVVLKAVFRMSEDTGRRVMMTAHRFGSAVVVVCERDIAETKAKEATDLGKEAGFPLMFTTEPEE
[1]
  Selectivity for Tyr, Tyr/Trp: 3.43
[2]
  Selectivity for Phe, Phe/Tyr: 0.21
[3]
  Selectivity for Trp, Trp/Tyr: 0.29
[4]
  Selectivity for Tyr, Tyr/Tyr: 1
[5]
  Selectivity for Trp, Trp/Trp: 1
[6]
  Kd: 13 µM
[7]
  Kd: 63 µM
[8]
  Kd: 18.4 µM
[9]
  Selectivity for Phe, Phe/Trp: 0.71
[10]
  Selectivity for Trp, Trp/Phe: 1.42
[11]
  Selectivity for Phe, Phe/Phe: 1
[12]
  Selectivity for Tyr, Tyr/Phe: 4.86
[13]
  koff: 0.93 s⁻¹
[14]
  koff: 1.16 s⁻¹
[15]
  koff: 1.32 s⁻¹
